These results are taken from PMC11446282.

The subject of this assay is PP2A-B55α. The experiment in a line: Single alanine mutational scan, YFP-tagged interactors immunoprecipitated from HeLa cells, Western blot. The assay is classed as binding, human. The following applies: single alanine mutant of YFP-tagged ZDS1. (In general: In western blotting, separated proteins are transferred to a membrane and probed.)

B1: ZDS1 L868: ZDS1, L868 to alanine (protein, UniProt P50111 1-915, looked up, variant L868A)
Protein ZDS1: MSNRDNESMLRTTSSDKAIASQRDKRKSEVLIAAQSLDNEIRSVKNLKRLSIGSMDLLIDPELDIKFGGESSGRRSWSGTTSSSASMPSDTTTVNNTRYSDPTPLENLHGRGNSGIESSNKTKQGNYLGIKKGVHSPSRKLNANVLKKNLLWVPANQHPNVKPDNFLELVQDTLQNIQLSDNGEDNDGNSNENNDIEDNGEDKESQSYENKENNTINLNRGLSRHGNASLIRRPSTLRRSYTEFDDNEDDDNKGDSASETVNKVEERISKIKERPVSLRDITEELTKISNSAGLTDNDAITLARTLSMAGSYSDKKDQPQPEGHYDEGDIGFSTSQANTLDDGEFASNMPINNTMTWPERSSLRRSRFNTYRIRSQEQEKEVEQSVDEMKNDDEERLKLTKNTIKVEIDPHKSPFRQQDEDSENMSSPGSIGDFQDIYNHYRQSSGEWEQEMGIEKEAEEVPVKVRNDTVEQDLELREGTTDMVKPSATDDNKETKRHRRRNGWTWLNNKMSREDDNEENQGDDENEENVDSQRMELDNSKKHYISLFNGGEKTEVSNKEEMNNSSTSTATSQTRQKIEKTFANLFRRKPHHKHDASSSPSSSPSSSPSIPNNDAVHVRVRKSKKLGNKSGREPVEPIVLRNRPRPHRHHHSRHGSQKISVKTLKDSQPQQQIPLQPQLEGAIEIEKKEESDSESLPQLQPAVSVSSTKSNSRDREEEEAKKKNKKRSNTTEISNQQHSKHVQKENTDEQKAQLQAPAQEQVQTSVPVQASAPVQNSAPVQTSAPVEASAQTQAPAAPPLKHTSILPPRKLTFADVKKPDKPNSPVQFTDSAFGFPLPLLTVSTVIMFDHRLPINVERAIYRLSHLKASNSKRGLREQVLLSNFMYAYLNLVNHTLYMEQVAHDKEQQQQQQQQP
In the case of B1, the Experimental % binding is recorded as 56%.

B2: ZDS1 N870: ZDS1, N870 to alanine (protein, UniProt P50111 1-915, looked up, variant N870A)
Protein ZDS1: MSNRDNESMLRTTSSDKAIASQRDKRKSEVLIAAQSLDNEIRSVKNLKRLSIGSMDLLIDPELDIKFGGESSGRRSWSGTTSSSASMPSDTTTVNNTRYSDPTPLENLHGRGNSGIESSNKTKQGNYLGIKKGVHSPSRKLNANVLKKNLLWVPANQHPNVKPDNFLELVQDTLQNIQLSDNGEDNDGNSNENNDIEDNGEDKESQSYENKENNTINLNRGLSRHGNASLIRRPSTLRRSYTEFDDNEDDDNKGDSASETVNKVEERISKIKERPVSLRDITEELTKISNSAGLTDNDAITLARTLSMAGSYSDKKDQPQPEGHYDEGDIGFSTSQANTLDDGEFASNMPINNTMTWPERSSLRRSRFNTYRIRSQEQEKEVEQSVDEMKNDDEERLKLTKNTIKVEIDPHKSPFRQQDEDSENMSSPGSIGDFQDIYNHYRQSSGEWEQEMGIEKEAEEVPVKVRNDTVEQDLELREGTTDMVKPSATDDNKETKRHRRRNGWTWLNNKMSREDDNEENQGDDENEENVDSQRMELDNSKKHYISLFNGGEKTEVSNKEEMNNSSTSTATSQTRQKIEKTFANLFRRKPHHKHDASSSPSSSPSSSPSIPNNDAVHVRVRKSKKLGNKSGREPVEPIVLRNRPRPHRHHHSRHGSQKISVKTLKDSQPQQQIPLQPQLEGAIEIEKKEESDSESLPQLQPAVSVSSTKSNSRDREEEEAKKKNKKRSNTTEISNQQHSKHVQKENTDEQKAQLQAPAQEQVQTSVPVQASAPVQNSAPVQTSAPVEASAQTQAPAAPPLKHTSILPPRKLTFADVKKPDKPNSPVQFTDSAFGFPLPLLTVSTVIMFDHRLPINVERAIYRLSHLKLSASKRGLREQVLLSNFMYAYLNLVNHTLYMEQVAHDKEQQQQQQQQP
B2 had an Experimental % binding of 49%.

B3: ZDS1 S871: ZDS1, S871 to alanine (protein, UniProt P50111 1-915, looked up, variant S871A)
Protein ZDS1: MSNRDNESMLRTTSSDKAIASQRDKRKSEVLIAAQSLDNEIRSVKNLKRLSIGSMDLLIDPELDIKFGGESSGRRSWSGTTSSSASMPSDTTTVNNTRYSDPTPLENLHGRGNSGIESSNKTKQGNYLGIKKGVHSPSRKLNANVLKKNLLWVPANQHPNVKPDNFLELVQDTLQNIQLSDNGEDNDGNSNENNDIEDNGEDKESQSYENKENNTINLNRGLSRHGNASLIRRPSTLRRSYTEFDDNEDDDNKGDSASETVNKVEERISKIKERPVSLRDITEELTKISNSAGLTDNDAITLARTLSMAGSYSDKKDQPQPEGHYDEGDIGFSTSQANTLDDGEFASNMPINNTMTWPERSSLRRSRFNTYRIRSQEQEKEVEQSVDEMKNDDEERLKLTKNTIKVEIDPHKSPFRQQDEDSENMSSPGSIGDFQDIYNHYRQSSGEWEQEMGIEKEAEEVPVKVRNDTVEQDLELREGTTDMVKPSATDDNKETKRHRRRNGWTWLNNKMSREDDNEENQGDDENEENVDSQRMELDNSKKHYISLFNGGEKTEVSNKEEMNNSSTSTATSQTRQKIEKTFANLFRRKPHHKHDASSSPSSSPSSSPSIPNNDAVHVRVRKSKKLGNKSGREPVEPIVLRNRPRPHRHHHSRHGSQKISVKTLKDSQPQQQIPLQPQLEGAIEIEKKEESDSESLPQLQPAVSVSSTKSNSRDREEEEAKKKNKKRSNTTEISNQQHSKHVQKENTDEQKAQLQAPAQEQVQTSVPVQASAPVQNSAPVQTSAPVEASAQTQAPAAPPLKHTSILPPRKLTFADVKKPDKPNSPVQFTDSAFGFPLPLLTVSTVIMFDHRLPINVERAIYRLSHLKLSNAKRGLREQVLLSNFMYAYLNLVNHTLYMEQVAHDKEQQQQQQQQP
The molecule B3 gave an Experimental % binding of 102%.

B4: ZDS1 S869: ZDS1, S869 to alanine (protein, UniProt P50111 1-915, looked up, variant S869A)
Protein ZDS1: MSNRDNESMLRTTSSDKAIASQRDKRKSEVLIAAQSLDNEIRSVKNLKRLSIGSMDLLIDPELDIKFGGESSGRRSWSGTTSSSASMPSDTTTVNNTRYSDPTPLENLHGRGNSGIESSNKTKQGNYLGIKKGVHSPSRKLNANVLKKNLLWVPANQHPNVKPDNFLELVQDTLQNIQLSDNGEDNDGNSNENNDIEDNGEDKESQSYENKENNTINLNRGLSRHGNASLIRRPSTLRRSYTEFDDNEDDDNKGDSASETVNKVEERISKIKERPVSLRDITEELTKISNSAGLTDNDAITLARTLSMAGSYSDKKDQPQPEGHYDEGDIGFSTSQANTLDDGEFASNMPINNTMTWPERSSLRRSRFNTYRIRSQEQEKEVEQSVDEMKNDDEERLKLTKNTIKVEIDPHKSPFRQQDEDSENMSSPGSIGDFQDIYNHYRQSSGEWEQEMGIEKEAEEVPVKVRNDTVEQDLELREGTTDMVKPSATDDNKETKRHRRRNGWTWLNNKMSREDDNEENQGDDENEENVDSQRMELDNSKKHYISLFNGGEKTEVSNKEEMNNSSTSTATSQTRQKIEKTFANLFRRKPHHKHDASSSPSSSPSSSPSIPNNDAVHVRVRKSKKLGNKSGREPVEPIVLRNRPRPHRHHHSRHGSQKISVKTLKDSQPQQQIPLQPQLEGAIEIEKKEESDSESLPQLQPAVSVSSTKSNSRDREEEEAKKKNKKRSNTTEISNQQHSKHVQKENTDEQKAQLQAPAQEQVQTSVPVQASAPVQNSAPVQTSAPVEASAQTQAPAAPPLKHTSILPPRKLTFADVKKPDKPNSPVQFTDSAFGFPLPLLTVSTVIMFDHRLPINVERAIYRLSHLKLANSKRGLREQVLLSNFMYAYLNLVNHTLYMEQVAHDKEQQQQQQQQP
Regarding B4, the Experimental % binding was found to be 77%.

B5: ZDS1 K872: ZDS1, K872 to alanine (protein, UniProt P50111 1-915, looked up, variant K872A)
Protein ZDS1: MSNRDNESMLRTTSSDKAIASQRDKRKSEVLIAAQSLDNEIRSVKNLKRLSIGSMDLLIDPELDIKFGGESSGRRSWSGTTSSSASMPSDTTTVNNTRYSDPTPLENLHGRGNSGIESSNKTKQGNYLGIKKGVHSPSRKLNANVLKKNLLWVPANQHPNVKPDNFLELVQDTLQNIQLSDNGEDNDGNSNENNDIEDNGEDKESQSYENKENNTINLNRGLSRHGNASLIRRPSTLRRSYTEFDDNEDDDNKGDSASETVNKVEERISKIKERPVSLRDITEELTKISNSAGLTDNDAITLARTLSMAGSYSDKKDQPQPEGHYDEGDIGFSTSQANTLDDGEFASNMPINNTMTWPERSSLRRSRFNTYRIRSQEQEKEVEQSVDEMKNDDEERLKLTKNTIKVEIDPHKSPFRQQDEDSENMSSPGSIGDFQDIYNHYRQSSGEWEQEMGIEKEAEEVPVKVRNDTVEQDLELREGTTDMVKPSATDDNKETKRHRRRNGWTWLNNKMSREDDNEENQGDDENEENVDSQRMELDNSKKHYISLFNGGEKTEVSNKEEMNNSSTSTATSQTRQKIEKTFANLFRRKPHHKHDASSSPSSSPSSSPSIPNNDAVHVRVRKSKKLGNKSGREPVEPIVLRNRPRPHRHHHSRHGSQKISVKTLKDSQPQQQIPLQPQLEGAIEIEKKEESDSESLPQLQPAVSVSSTKSNSRDREEEEAKKKNKKRSNTTEISNQQHSKHVQKENTDEQKAQLQAPAQEQVQTSVPVQASAPVQNSAPVQTSAPVEASAQTQAPAAPPLKHTSILPPRKLTFADVKKPDKPNSPVQFTDSAFGFPLPLLTVSTVIMFDHRLPINVERAIYRLSHLKLSNSARGLREQVLLSNFMYAYLNLVNHTLYMEQVAHDKEQQQQQQQQP
Take B5: the Experimental % binding is recorded as 23%.

B6: ZDS1 R873: ZDS1, R873 to alanine (protein, UniProt P50111 1-915, looked up, variant R873A)
Protein ZDS1: MSNRDNESMLRTTSSDKAIASQRDKRKSEVLIAAQSLDNEIRSVKNLKRLSIGSMDLLIDPELDIKFGGESSGRRSWSGTTSSSASMPSDTTTVNNTRYSDPTPLENLHGRGNSGIESSNKTKQGNYLGIKKGVHSPSRKLNANVLKKNLLWVPANQHPNVKPDNFLELVQDTLQNIQLSDNGEDNDGNSNENNDIEDNGEDKESQSYENKENNTINLNRGLSRHGNASLIRRPSTLRRSYTEFDDNEDDDNKGDSASETVNKVEERISKIKERPVSLRDITEELTKISNSAGLTDNDAITLARTLSMAGSYSDKKDQPQPEGHYDEGDIGFSTSQANTLDDGEFASNMPINNTMTWPERSSLRRSRFNTYRIRSQEQEKEVEQSVDEMKNDDEERLKLTKNTIKVEIDPHKSPFRQQDEDSENMSSPGSIGDFQDIYNHYRQSSGEWEQEMGIEKEAEEVPVKVRNDTVEQDLELREGTTDMVKPSATDDNKETKRHRRRNGWTWLNNKMSREDDNEENQGDDENEENVDSQRMELDNSKKHYISLFNGGEKTEVSNKEEMNNSSTSTATSQTRQKIEKTFANLFRRKPHHKHDASSSPSSSPSSSPSIPNNDAVHVRVRKSKKLGNKSGREPVEPIVLRNRPRPHRHHHSRHGSQKISVKTLKDSQPQQQIPLQPQLEGAIEIEKKEESDSESLPQLQPAVSVSSTKSNSRDREEEEAKKKNKKRSNTTEISNQQHSKHVQKENTDEQKAQLQAPAQEQVQTSVPVQASAPVQNSAPVQTSAPVEASAQTQAPAAPPLKHTSILPPRKLTFADVKKPDKPNSPVQFTDSAFGFPLPLLTVSTVIMFDHRLPINVERAIYRLSHLKLSNSKAGLREQVLLSNFMYAYLNLVNHTLYMEQVAHDKEQQQQQQQQP
Molecule B6 had an Experimental % binding of 15%.
